Data published in patent US12534531 (MacroGenics, dated 2026).

How the values were obtained:
[1] = biological target: T1, soluble human PD-1 (the extracellular domain of human PD-1 fused to a His tag) (human, UniProt Q15116 25-170); experiment: ELISA: shPD-1 His coated at 0.5 ug/ml, goat anti-mouse (H+L)-HRP, RLU
T1 construct: also called shPD-1 His; shPD-1-His; not shown: His tag

[2] = biological target: T2, soluble cynomolgus monkey PD-1 (the extracellular domain of cynomolgus monkey PD-1 fused to a human Fc Region) (cynomolgus monkey, UniProt B0LAJ3 25-170); experiment: ELISA: scyno-PD-1-TEV-Fc coated at 0.5 ug/ml, goat anti-mouse (H+L)-HRP, RLU
T2 construct: also called scyno-PD1 Fc; scynoPD-1-hFc; not shown: Human Fc Region and any linker or cleavage site between the extracellular domain and the Fc
T2 sequence (B0LAJ3 entry or part of it limits assumed): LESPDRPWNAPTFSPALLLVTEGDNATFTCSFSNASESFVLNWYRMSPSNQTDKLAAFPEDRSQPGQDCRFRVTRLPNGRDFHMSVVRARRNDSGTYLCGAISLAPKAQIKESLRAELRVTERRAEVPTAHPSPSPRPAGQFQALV

[3] = biological target: T3, soluble cynomolgus monkey PD-1 (scyno PD-1 hFc) cleaved to remove Fc portion (cynomolgus monkey, UniProt B0LAJ3 25-170); experiment: Biacore, mAb captured on Protein A, analyte scyno PD-1 hFc cleaved of Fc
[4] = biological target: T1, soluble human PD-1 (the extracellular …); experiment: Biacore, mAb captured on Protein A, analyte shPD-1 His
[5] = biological target: T3, soluble cynomolgus monkey PD-1 (scyno …); experiment: Biacore, mAb captured on F(ab)2 goat anti-human Fc, analyte scyno PD-1 hFc cleaved of Fc
[6] = biological target: T1, soluble human PD-1 (the extracellular …); experiment: Biacore, mAb captured on F(ab)2 goat anti-human Fc, analyte shPD-1 His
[7] = biological target: T4, human PD-1 expressed on the surface of cells (NSO cells expressing human PD-1; MNFAT-luc2/PD-1 Jurkat cells) (human, UniProt Q15116 21-288); experiment: FACS saturation binding on NSO cells expressing human PD-1, goat anti-human-APC, MFI, 1:4 dilutions
T4 construct: also called cell surface PD-1; PDCD1 transfected NSO cells expressing PD-1
T4 sequence (Q15116 21-288): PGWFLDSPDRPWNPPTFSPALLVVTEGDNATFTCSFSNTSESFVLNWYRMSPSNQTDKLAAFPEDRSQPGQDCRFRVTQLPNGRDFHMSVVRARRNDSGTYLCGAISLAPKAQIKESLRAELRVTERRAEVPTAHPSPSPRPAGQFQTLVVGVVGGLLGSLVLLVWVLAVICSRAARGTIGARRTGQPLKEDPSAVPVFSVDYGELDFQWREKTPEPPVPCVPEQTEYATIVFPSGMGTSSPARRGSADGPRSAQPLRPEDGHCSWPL

[8] = biological target: T4, human PD-1 expressed on the surface of …; experiment: FACS blocking on NSO cells expressing human PD-1, 1:4 dilutions, MFI; blocked ligand: biotinylated sPD-L2, streptavidin-PE
[9] = biological target: T4, human PD-1 expressed on the surface of …; experiment: FACS blocking on NSO cells expressing human PD-1, 1:4 dilutions, MFI; blocked ligand: biotinylated sPD-L1, streptavidin-PE
[10] = biological target: T4, human PD-1 expressed on the surface of …; experiment: FACS: biotinylated sPD-L2 on NSO cells expressing human PD-1, streptavidin-PE, MFI
[11] = biological target: T1, soluble human PD-1 (the extracellular …); experiment: ELISA: shPD-1 His coated at 1 ug/ml, goat anti-mouse (H+L)-HRP, RLU
[12] = biological target: T2, soluble cynomolgus monkey PD-1 (the …); experiment: ELISA: scyno-PD-1-TEV-hFc coated at 1 ug/ml, goat anti-mouse (H+L) detection, RLU
[13] = biological target: T5, PD-1 on the surface of CD4+ and CD8+ T cells of cynomolgus monkeys (cynomolgus monkey, UniProt B0LAJ3 25-288); experiment: flow cytometry competition with labeled hPD-1 mAb 7 (1.2) IgG4 (P) on blood of cynomolgus monkeys given 10 mg/kg
T5 construct: In vivo occupancy read by flow cytometry; also called PD-1+/CD4+ and PD-1+/CD8+ cells
T5 sequence (B0LAJ3 entry or part of it limits assumed): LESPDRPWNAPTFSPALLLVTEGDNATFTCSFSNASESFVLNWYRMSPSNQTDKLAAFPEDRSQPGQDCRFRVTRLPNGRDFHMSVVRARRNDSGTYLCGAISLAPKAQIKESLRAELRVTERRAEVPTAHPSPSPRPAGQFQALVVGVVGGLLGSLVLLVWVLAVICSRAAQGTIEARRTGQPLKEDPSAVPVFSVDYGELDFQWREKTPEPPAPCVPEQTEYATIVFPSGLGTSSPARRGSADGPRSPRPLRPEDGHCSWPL

T1 sequence (Q15116 25-170): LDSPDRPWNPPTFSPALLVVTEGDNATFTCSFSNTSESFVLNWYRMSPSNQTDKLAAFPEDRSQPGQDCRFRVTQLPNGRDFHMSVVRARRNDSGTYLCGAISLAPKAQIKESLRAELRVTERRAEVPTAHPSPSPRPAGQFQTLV

B1: PD-1 mAb 5 (antibody, V domains shown)
VH: QVQLQQPGVELVRPGASVKLSCKASGYSFTAYWMNWMKQRPGQGLEWIGVIHPSDSETWLNQKFKDKATLTVDKSSSTAYMQLISPTSEDSAVYYCAREHYGSSPFAYWGQGTLVTVSA
VL: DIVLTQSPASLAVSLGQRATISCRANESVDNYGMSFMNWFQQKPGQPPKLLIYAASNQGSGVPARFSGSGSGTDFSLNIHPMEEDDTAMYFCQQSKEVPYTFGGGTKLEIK
notes: Murine monoclonal antibody
For B1, the “EC50 (read off the curve)” value [1] was about 0.3 nM and the binding result [2] was “binds”.

B2: PD-1 mAb 7 (antibody, V domains shown)
VH: QVQLQQPGAELVRPGASVKLSCKASGYSFTSYWMNWVKQRPGQGLEWIGVIHPSDSETWLDQKFKDKATLTVDKSSTTAYMQLISPTSEDSAVYYCAREHYGTSPFAYWGQGTLVTVSS
VL: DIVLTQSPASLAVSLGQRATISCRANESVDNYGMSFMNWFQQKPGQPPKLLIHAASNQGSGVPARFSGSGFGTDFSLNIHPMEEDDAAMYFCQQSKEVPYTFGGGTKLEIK
notes: Murine monoclonal antibody
B2 was tested, and the “EC50 (read off the curve)” value [1] was about 0.2 nM, the Kd [3] was 3.5 nM and the Kd [4] was 1.3 nM. The “EC50 (read off the curve)” value [2] was about 0.3 nM.

B3: hPD-1 mAb 9 (1.1) IgG4 (P) (antibody)
heavy: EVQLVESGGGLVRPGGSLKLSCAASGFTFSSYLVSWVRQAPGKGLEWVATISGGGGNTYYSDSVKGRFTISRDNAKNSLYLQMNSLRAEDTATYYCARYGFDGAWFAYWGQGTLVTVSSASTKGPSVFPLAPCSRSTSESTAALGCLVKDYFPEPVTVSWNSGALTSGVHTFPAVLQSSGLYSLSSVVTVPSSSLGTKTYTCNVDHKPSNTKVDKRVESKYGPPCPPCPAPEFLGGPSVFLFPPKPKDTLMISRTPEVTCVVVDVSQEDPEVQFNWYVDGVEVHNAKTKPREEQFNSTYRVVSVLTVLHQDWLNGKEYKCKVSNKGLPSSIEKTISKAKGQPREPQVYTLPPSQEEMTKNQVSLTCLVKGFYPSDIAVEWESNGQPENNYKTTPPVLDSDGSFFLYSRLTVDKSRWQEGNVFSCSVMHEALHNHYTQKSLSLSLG
light: DIQMTQSPSSLSASVGDRVTITCRASENIYSYLAWYQQKPGKAPKLLIYNAKTLAAGVPSRFSGSGSGTDFTLTISSLQPEDFATYYCQHHYAVPWTFGQGTKLEIKRTVAAPSVFIFPPSDEQLKSGTASVVCLLNNFYPREAKVQWKVDNALQSGNSQESVTEQDSKDSTYSLSSTLTLSKADYEKHKVYACEVTHQGLSSPVTKSFNRGEC
notes: also called hPD-1 mAb 9 IgG4 (P)
In the case of B3, the Kd [5] is reported as 15.1 nM, the Kd [6] is reported as 9.5 nM and the “EC50 (read off the curve)” value [7] is reported as about 0.5 µg/mL. For the same binder, the “IC50 (read off the curve)” value [8] was about 0.1 ug/test and the “IC50 (read off the curve)” value [9] was about 0.03 ug/test.

B4: hPD-1 mAb 2 IgG1 (AA) (antibody, V domains shown)
VH: EVQLVESGGGLVQPGGSLRLSCAASGFVFSSFGMHWVRQAPGKGLEWVAYISSGSMSISYADTVKGRFTISRDNAKNTLYLQMNSLRTEDTALYYCASLSDYFDYWGQGTTVTVSS
VL: DVVMTQSPLSLPVTLGQPASISCRSSQSLVHSTGNTYLHWYLQKPGQSPQLLIYRVSNRFSGVPDRFSGSGSGTDFTLKISRVEAEDVGVYYCSQTTHVPWTFGQGTKLEIKR
B4 was tested, and the “EC50 (read off the curve)” value [7] was about 0.5 µg/mL, the “IC50 (read off the curve)” value [8] was about 0.1 ug/test and the “IC50 (read off the curve)” value [9] was about 0.04 ug/test.

B5: hPD-1 mAb 7 (1.1) IgG1 (AA) (antibody, V domains shown)
VH: QVQLVQSGAEVKKPGASVKVSCKASGYSFTSYWMNWVRQAPGQGLEWIGVIHPSDSETWLDQKFKDRVTITVDKSTSTAYMELSSLRSEDTAVYYCAREHYGTSPFAYWGQGTLVTVSS
VL: EIVLTQSPATLSLSPGERATLSCRANESVDNYGMSFMNWFQQKPGQPPKLLIHAASNQGSGVPSRFSGSGSGTDFTLTISSLEPEDFAVYFCQQSKEVPYTFGGGTKVEIKR
notes: VH1 with VL1
For B5, the “EC50 (read off the curve)” value [7] was about 0.2 µg/mL, the “IC50 (read off the curve)” value [8] was about 0.01 ug/test and the “IC50 (read off the curve)” value [9] was about 0.01 ug/test.

B6: hPD-1 mAb 9 (1.1) IgG1 (AA) (antibody)
heavy: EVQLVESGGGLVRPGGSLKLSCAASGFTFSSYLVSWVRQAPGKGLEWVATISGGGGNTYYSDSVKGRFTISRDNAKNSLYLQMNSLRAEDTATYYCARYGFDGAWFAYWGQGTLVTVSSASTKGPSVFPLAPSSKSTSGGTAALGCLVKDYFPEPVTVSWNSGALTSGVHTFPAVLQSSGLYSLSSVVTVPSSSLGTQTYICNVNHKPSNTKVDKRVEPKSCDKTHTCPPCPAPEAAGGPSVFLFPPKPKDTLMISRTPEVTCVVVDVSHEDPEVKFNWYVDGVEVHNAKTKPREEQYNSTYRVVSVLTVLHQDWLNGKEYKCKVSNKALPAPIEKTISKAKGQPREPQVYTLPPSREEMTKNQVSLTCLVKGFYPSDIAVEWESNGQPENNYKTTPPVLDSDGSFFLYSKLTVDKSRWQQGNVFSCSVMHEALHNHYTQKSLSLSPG
light: DIQMTQSPSSLSASVGDRVTITCRASENIYSYLAWYQQKPGKAPKLLIYNAKTLAAGVPSRFSGSGSGTDFTLTISSLQPEDFATYYCQHHYAVPWTFGQGTKLEIKRTVAAPSVFIFPPSDEQLKSGTASVVCLLNNFYPREAKVQWKVDNALQSGNSQESVTEQDSKDSTYSLSSTLTLSKADYEKHKVYACEVTHQGLSSPVTKSFNRGEC
notes: also called hPD-1 mAb 9 IgG1 (AA)
With B6 the Kd [5] was 9.3 nM, the Kd [6] was 10.9 nM and the “EC50 (read off the curve)” value [7] was about 0.2 µg/mL. For the same binder, the “IC50 (read off the curve)” value [8] was about 0.1 ug/test and the “IC50 (read off the curve)” value [9] was about 0.06 ug/test.

B7: PD-1 mAb 6 (antibody, V domains shown)
VH: EVKLVESGGGLVNPGGSLKLSCAASGFTFSSYGMSWVRQTPEKRLEWVATISGGGSDTYYPDSVKGRFTISRDNAKNNLYLQMSSLRSEDTALYYCARQKATTWFAYWGQGTLVTVST
VL: not shown
notes: Murine monoclonal antibody
B7 was tested, and the “EC50 (read off the curve)” value [1] was about 0.3 nM and the binding result [2] was “binds”.

B8: biotinylated-soluble human PD-L2-muIgFc fusion protein (Ancell Cat #573-030) (Fc fusion, UniProt Q9BQ51 20-220, looked up)
chain: LFTVTVPKELYIIEHGSNVTLECNFDTGSHVNLGAITASLQKVENDTSPHRERATLLEEQLPLGKASFHIPQVQVRDEGQYQCIIIYGVAWDYKYLTLKVKASYRKINTHILKVPETDEVELTCQATGYPLAEVSWPNVSVPANTSHSRTPEGLYQVTSVLRLKPPPGRNFSCVFWNTHVRELTLASIDLQSQMEPRTHPT
modifications: biotinylated (site not stated)
notes: Bought reagent; also called shPD-L2; sPD-L2; not shown: murine Ig Fc
B8: binds [10].

B9: PD-1 mAb 1 (antibody, V domains shown)
VH: DVQLQESGPGRVKPSQSLSLTCTVTGFSITNDYAWNWIRQFPGNKLEWMGHITYSGSTSYNPSLKSRISITRDTSKNHFFLQLSSVTPEDTATYYCARDYGSGYPYTLDYWGQGTSVTVSS
VL: QIVLTQSPALMSASPGEKVTMTCSATSIVSYVYWYQQKPGSSPQPWIYLTSNLASGVPARFSGSGSGTSYSLTISSMEAEDAATYYCQQWSDNPYTFGGGTKLEIK
notes: Murine monoclonal antibody
B9 was tested, and the “EC50 (read off the curve)” value [11] was about 0.3 nM and the “EC50 (read off the curve)” value [2] was about 0.3 nM.

B10: PD-1 mAb 2 (antibody, V domains shown)
VH: DVQLVESGGGLVQPGGSRKLSCAASGFVFSSFGMHWVRQAPEKGLEWVAYISSGSMSISYADTVKGRFTVTRDNAKNTLFLQMTSLRSEDTAIYYCASLSDYFDYWGQGTTLTVSS
VL: DVVMSQTPLSLPVSLGDQASISCRSSQSLVHSTGNTYLHWYLQKPGQSPKLLIYRVSNRFSGVPDRFSGSGSGTDFTLKISRVEAEDLGVFFCSQTTHVPWTFGGGTKLEIK
notes: Murine monoclonal antibody
B10 was tested, and the Kd [3] was 14.3 nM, the Kd [4] was 10.2 nM and the “EC50 (read off the curve)” value [11] was about 0.3 nM. For the same binder, the “EC50 (read off the curve)” value [2] was about 0.3 nM.

B11: PD-1 mAb 4 (antibody, V domains shown)
VH: DVQLVESGGGLVQPGGSRKLSCAASGFVFSSFGMHWVRQAPEKGLEWVAYISSGSMSISYADTVKGRFTVTRDNAKNTLFLQMTSLRSEDTAIYYCASLTDYFDYWGQGTTLTVSS
VL: DVVMSQTPLSLPVSLGDQASISCRSSQSLVHSTGNTYFHWYLQKPGQSPKLLIYRVSNRFSGVPDRFSGSGSGTDFTLKISRVEAEDLGVYFCSQTTHVPWTFGGGTKLEIK
notes: Murine monoclonal antibody
For B11, the “EC50 (read off the curve)” value [11] was about 0.3 nM and the “EC50 (read off the curve)” value [2] was about 0.3 nM.

B12: PD-1 mAb 9 (antibody, V domains shown)
VH: EVMLVESGGGLVKPGGSLKLSCAASGFTFSSYLVSWVRQTPEKRLEWVATISGGGGNTYYSDSVKGRFTISRDNAKNTLYLQISSLRSEDTALYYCARYGFDGAWFAYWGQGTLVTVSS
VL: DIQMTQSPASLSASVGDIVTITCRASENIYSYLAWYQQKQEKSPQLLVYNAKTLAAGVPSRFSGSGSGTQFSLTINSLQPEDFGNYYCQHHYAVPWTFGGGTRLEIT
notes: Murine monoclonal antibody
With B12 the Kd [3] was 72.7 nM, the Kd [4] was 9.8 nM and the binding result [12] was “binds”. For the same binder, the “EC50 (read off the curve)” value [11] was about 0.4 nM.

B13: PD-1 mAb A IgG4 (P) (antibody, V domains shown)
VH: QVQLVESGGGVVQPGRSLRLDCKASGITFSNSGMHWVRQAPGKGLEWVAVIWYDGSKRYYADSVKGRFTISRDNSKNTLFLQMNSLRAEDTAVYYCATNDDYWGQGTLVTVSS
VL: EIVLTQSPATLSLSPGERATLSCRASQSVSSYLAWYQQKPGQAPRLLIYDASNRATGIPARFSGSGSGTDFTLTISSLEPEDFAVYYCQQSSNWPRTFGQGTKVEIK
B13 was tested, and the Kd [5] was 6 nM and the “PD-1 binding on CD4+ and CD8+ T cells (% bound, in vivo)” value [13] was at least 80%.

B14: PD-1 mAb B IgG4 (P) (antibody, V domains shown)
VH: QVQLVQSGVEVKKPGASVKVSCKASGYTFTNYYMYWVRQAPGQGLEWMGGINPSNGGTNFNEKFKNRVTLTTDSSTTTAYMELKSLQFDDTAVYYCARRDYRFDMGFDYWGQGTTVTVSS
VL: EIVLTQSPATLSLSPGERATLSCRASKGVSTSGYSYLHWYQQKPGQAPRLLIYLASYLESGVPARFSGSGSGTDFTLTISSLEPEDFAVYYCQHSRDLPLTFGGGTKVEIK
B14 was tested, and the Kd [5] was 4 nM and the “PD-1 binding on CD4+ and CD8+ T cells (% bound, in vivo)” value [13] was at least 80%.
